± gives the standard deviation of the averaged measurements.
Assay: total protein half-life in vivo (active degradation + dilution); higher = more stable protein
[1] = E. coli NCM3722 delta-clpP delta-lon delta-hslV, growth: N-lim chemostat, doubling time 6 h
[2] = E. coli NCM3722 delta-clpP, growth: N-lim chemostat, doubling time 6 h
[3] = E. coli NCM3722 delta-hslV, growth: N-lim chemostat, doubling time 6 h
[4] = E. coli NCM3722 delta-lon, growth: N-lim chemostat, doubling time 6 h
[5] = E. coli NCM3722 delta-smpB, growth: N-lim chemostat, doubling time 6 h
[6] = wild type E. coli NCM3722, growth: C-lim chemostat, doubling time 6 h
[7] = wild type E. coli NCM3722, growth: C-lim chemostat, doubling time 12 h
[8] = wild type E. coli NCM3722, growth: N-lim chemostat, doubling time 6 h
[9] = wild type E. coli NCM3722, growth: N-lim chemostat, doubling time 12 h
[10] = wild type E. coli NCM3722, growth: P-lim chemostat, doubling time 6 h
[11] = wild type E. coli NCM3722, growth: P-lim chemostat, doubling time 12 h
[12] = wild type E. coli NCM3722, growth: C-lim chemostat, doubling time 3 h

Row | Sequence | total protein half-life in vivo [1] [h] | total protein half-life in vivo [2] [h] | total protein half-life in vivo [3] [h] | total protein half-life in vivo [4] [h] | total protein half-life in vivo [5] [h] | total protein half-life in vivo [6] [h] | total protein half-life in vivo [7] [h] | total protein half-life in vivo [8] [h] | total protein half-life in vivo [9] [h] | total protein half-life in vivo [10] [h] | total protein half-life in vivo [11] [h] | total protein half-life in vivo [12] [h]
1 | MKIRSQVGMVLNLDKCIGCHTCSVTCKNVWTSREGVEYAWFNNVETKPGQGFPTDWENQEKYKGGWIRKINGKLQPRMGNRAMLLGKIFANPHLPGIDDYYEPFDFDYQNLHTAPEGSKSQPIARPRSLITGERMAKIEKGPNWEDDLGGEFDKLAKDKNFDNIQKAMYSQFENTFMMYLPRLCEHCLNPACVATCPSGAIYKREEDGIVLIDQDKCRGWRMCITGCPYKKIYFNWKSGKSEKCIFCYPRIEAGQPTVCSETCVGRIRYLGVLLYDADAIERAASTENEKDLYQRQLDVFLDPNDPKVIEQAIKDGIPLSVIEAAQQSPVYKMAMEWKLALPLHPEYRTLPMVWYVPPLSPIQSAADAGELGSNGILPDVESLRIPVQYLANLLTAGDTKPVLRALKRMLAMRHYKRAETVDGKVDTRALEEVGLTEAQAQEMYRYLAIANYEDRFVVPSSHRELAREAFPEKNGCGFTFGDGCHGSDTKFNLFNSRRIDAIDVTSKTEPHP | 5.82 ± 0.15 | 5.37 ± 0.84 | 5.9 ± 0.44 | 5.52 ± 0.8 | 5.81 ± 0.086 | 5.809 ± 0.058 | 12.8 | 5.29 | 11.3 ± 0.39 | 6 ± 0.39 | 10.8 ± 2.4 | 
2 | MLLNMMCGRQLSAISLCLAVTFAPLFNAQADEPEVIPGDSPVAVSEQGEALPQAQATAIMAGIQPLPEGAAEKARTQIESQLPAGYKPVYLNQLQLLYAARDMQPMWENRDAVKAFQQQLAEVAIAGFQPQFNKWVELLTDPGVNGMARDVVLSDAMMGYLHFIANIPVKGTRWLYSSKPYALATPPLSVINQWQLALDKGQLPTFVAGLAPQHPQYAAMHESLLALLCDTKPWPQLTGKATLRPGQWSNDVPALREILQRTGMLDGGPKITLPGDDTPTDAVVSPSAVTVETAETKPMDKQTTSRSKPAPAVRAAYDNELVEAVKRFQAWQGLGADGAIGPATRDWLNVTPAQRAGVLALNIQRLRLLPTELSTGIMVNIPAYSLVYYQNGNQVLDSRVIVGRPDRKTPMMSSALNNVVVNPPWNVPPTLARKDILPKVRNDPGYLESHGYTVMRGWNSREAIDPWQVDWSTITASNLPFRFQQAPGPRNSLGRYKFNMPSSEAIYLHDTPNHNLFKRDTRALSSGCVRVNKASDLANMLLQDAGWNDKRISDALKQGDTRYVNIRQSIPVNLYYLTAFVGADGRTQYRTDIYNYDLPARSSSQIVSKAEQLIR | 5.42 ± 0.21 | 5.32 ± 1 | 5.764 ± 0.032 | 5.39 ± 0.3 | 4.989 ± 0.017 | 6.5 ± 0.17 | 12.2 ± 1.1 | 5.57 ± 0.65 | 8.84 ± 0.75 | 4.75 ± 0.52 | 9.2 ± 1.2 | 3.03 ± 0.053
3 | MTMNITSKQMEITPAIRQHVADRLAKLEKWQTHLINPHIILSKEPQGFVADATINTPNGVLVASGKHEDMYTAINELINKLERQLNKLQHKGEARRAATSVKDANFVEEVEEE [P0AD49] | 6.33 ± 1.1 | 4.87 | 1.49 |  | 0.687 | 2.32 | 2.47 ± 0.42 |  | 1.07 |  | 1.59 | 0.852 ± 0.17
4 | MPDAKKQGRSNKAMTFFVCFLAALAGLLFGLDIGVIAGALPFIADEFQITSHTQEWVVSSMMFGAAVGAVGSGWLSFKLGRKKSLMIGAILFVAGSLFSAAAPNVEVLILSRVLLGLAVGVASYTAPLYLSEIAPEKIRGSMISMYQLMITIGILGAYLSDTAFSYTGAWRWMLGVIIIPAILLLIGVFFLPDSPRWFAAKRRFVDAERVLLRLRDTSAEAKRELDEIRESLQVKQSGWALFKENSNFRRAVFLGVLLQVMQQFTGMNVIMYYAPKIFELAGYTNTTEQMWGTVIVGLTNVLATFIAIGLVDRWGRKPTLTLGFLVMAAGMGVLGTMMHIGIHSPSAQYFAIAMLLMFIVGFAMSAGPLIWVLCSEIQPLKGRDFGITCSTATNWIANMIVGATFLTMLNTLGNANTFWVYAALNVLFILLTLWLVPETKHVSLEHIERNLMKGRKLREIGAHD [P0AEP1] |  | 4.26 | 4.28 |  | 6.91 | 4.51 |  |  |  | 5.628 ± 0.028 | 9.86 | 2.58
5 | MSDNDTIVAQATPPGRGGVGILRISGFKAREVAETVLGKLPKPRYADYLPFKDADGSVLDQGIALWFPGPNSFTGEDVLELQGHGGPVILDLLLKRILTIPGLRIARPGEFSERAFLNDKLDLAQAEAIADLIDASSEQAARSALNSLQGAFSARVNHLVEALTHLRIYVEAAIDFPDEEIDFLSDGKIEAQLNDVIADLDAVRAEARQGSLLREGMKVVIAGRPNAGKSSLLNALAGREAAIVTDIAGTTRDVLREHIHIDGMPLHIIDTAGLREASDEVERIGIERAWQEIEQADRVLFMVDGTTTDAVDPAEIWPEFIARLPAKLPITVVRNKADITGETLGMSEVNGHALIRLSARTGEGVDVLRNHLKQSMGFDTNMEGGFLARRRHLQALEQAAEHLQQGKAQLLGAWAGELLAEELRLAQQNLSEITGEFTSDDLLGRIFSSFCIGK | 5.13 ± 0.69 | 5.57 ± 0.62 | 4.91 ± 0.24 | 5.72 ± 0.4 | 4.68 ± 0.25 | 5.46 ± 0.16 | 10.2 ± 5 | 5.14 ± 0.12 | 8.32 ± 0.99 | 5.69 ± 0.32 | 11.7 ± 0.24 | 3.43 ± 0.63
6 | MKILLAALTSSFMLVGCTPRIEVAAPKEPITINMNVKIEHEIIIKADKDVEELLETRSDLF | 7.04 ± 0.68 |  |  | 6.88 ± 0.2 | 5.661 ± 0.018 |  | 12 ± 1.4 |  | 13.6 ± 1.1 |  | 12.9 ± 0.47 | 3.15 ± 0.11
